Assay [1] addresses T1, human LRP8 (Low-density lipoprotein receptor-related protein 8), biotinylated (human, UniProt Q14114 33-826, limits assumed, biotinylated).
T1 construct: also called hu-antigen; human antigen
As to the kind of experiment: ELISA, biotinylated human LRP8.

Assay [2] deals with T1, human LRP8 (Low-density lipoprotein …). As to the kind of experiment: ELISA, biotinylated human LRP8. As for the experimental part:
The antigen, biotinylated human LRP8, was incubated with 5 μL sample containing the anti-LRP8 antibody at a concentration of 250 ng/mL in a total volume of 25 μL in PBS, 0.5% BSA and 0.05% Tween in a 384 w microtiterplate (Maxisorb (with Streptavidin, Nunc). After 1.5 hrs. incubation at 25° C. unbound antibody was removed by washing 6 times with 90 μL PBS (dispense and aspiration). The antigen-antibody complex was detected by an anti-rabbit antibody conjugated to POD (ECL anti-rabbit IgG-POD, Cat. No. NA9340V; POD=peroxidase). 20-30 min after adding 35 μL POD-substrate 3,3′,5,5′-tetramethyl benzidine (TMB; Piercenet, Cat. No. 34021) the optical density was determined at 370 nm. The EC₅₀ value was calculated with a four parameter logistic model using GraphPad Prism 6.0 software.
This is another data set of the same source. In general terms: In an ELISA, binding on a coated surface is turned into a signal by an enzyme label.

Assay [3] concerns the target T2, murine LRP8, biotinylated (murine, UniProt Q924X6 29-858, limits assumed, biotinylated).
T2 construct: also called mu-antigen; murine antigen
As to the kind of experiment: ELISA, biotinylated murine LRP8.

Assay [4] addresses T2, murine LRP8, biotinylated. As to the kind of experiment: ELISA, biotinylated murine LRP8. This is another data set of the same source.

Where a chain is given by its changes, count along the chain named. Like-named read-outs stand apart in the source and are kept apart here.

T1 sequence (Q14114 33-826 limits assumed): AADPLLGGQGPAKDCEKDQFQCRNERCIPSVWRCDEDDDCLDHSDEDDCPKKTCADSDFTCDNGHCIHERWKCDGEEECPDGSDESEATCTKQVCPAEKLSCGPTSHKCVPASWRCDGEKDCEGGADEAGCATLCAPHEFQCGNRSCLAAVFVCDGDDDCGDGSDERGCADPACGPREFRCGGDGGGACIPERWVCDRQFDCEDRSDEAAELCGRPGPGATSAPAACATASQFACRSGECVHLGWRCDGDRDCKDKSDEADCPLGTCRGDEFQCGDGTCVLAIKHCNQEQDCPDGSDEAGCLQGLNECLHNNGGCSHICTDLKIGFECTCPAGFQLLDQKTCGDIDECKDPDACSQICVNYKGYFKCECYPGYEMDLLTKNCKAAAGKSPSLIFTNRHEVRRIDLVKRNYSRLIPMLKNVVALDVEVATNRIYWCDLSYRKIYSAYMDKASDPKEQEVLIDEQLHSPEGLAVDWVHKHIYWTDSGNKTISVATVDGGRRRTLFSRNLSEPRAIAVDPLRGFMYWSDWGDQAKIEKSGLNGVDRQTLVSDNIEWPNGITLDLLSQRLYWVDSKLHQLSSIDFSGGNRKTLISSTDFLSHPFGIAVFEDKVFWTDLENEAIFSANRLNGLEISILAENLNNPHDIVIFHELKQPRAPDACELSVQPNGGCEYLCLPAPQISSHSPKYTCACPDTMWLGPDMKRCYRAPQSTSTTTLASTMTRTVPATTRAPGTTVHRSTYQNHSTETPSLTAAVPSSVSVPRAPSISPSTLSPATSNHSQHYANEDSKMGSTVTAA
T2 sequence (Q924X6 29-858 limits assumed): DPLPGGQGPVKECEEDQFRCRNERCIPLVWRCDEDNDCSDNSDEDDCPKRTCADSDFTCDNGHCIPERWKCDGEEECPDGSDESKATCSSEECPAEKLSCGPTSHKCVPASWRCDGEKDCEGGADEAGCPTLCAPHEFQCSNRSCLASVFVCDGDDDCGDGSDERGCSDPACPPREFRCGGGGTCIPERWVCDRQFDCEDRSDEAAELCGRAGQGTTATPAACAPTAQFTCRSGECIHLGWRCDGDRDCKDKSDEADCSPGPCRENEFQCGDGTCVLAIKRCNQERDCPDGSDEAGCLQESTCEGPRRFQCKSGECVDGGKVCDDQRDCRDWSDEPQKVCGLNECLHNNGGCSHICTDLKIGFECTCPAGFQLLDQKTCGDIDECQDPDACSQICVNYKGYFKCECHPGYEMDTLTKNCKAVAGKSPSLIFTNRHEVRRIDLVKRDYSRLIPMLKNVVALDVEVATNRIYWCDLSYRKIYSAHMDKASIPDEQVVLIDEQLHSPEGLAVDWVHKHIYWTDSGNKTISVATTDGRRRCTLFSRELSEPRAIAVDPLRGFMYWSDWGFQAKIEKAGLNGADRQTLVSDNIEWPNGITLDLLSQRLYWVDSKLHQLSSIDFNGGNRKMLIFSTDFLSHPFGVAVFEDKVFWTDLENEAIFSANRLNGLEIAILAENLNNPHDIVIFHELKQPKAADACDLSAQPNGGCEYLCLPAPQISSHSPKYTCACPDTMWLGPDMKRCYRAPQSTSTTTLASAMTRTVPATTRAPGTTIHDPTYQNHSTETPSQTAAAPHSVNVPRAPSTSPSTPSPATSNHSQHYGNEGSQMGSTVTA

B1: BCC.763 (antibody, V domains shown)
VH: CQSVEESGGRLVTPGTPLTLTCTASGFSLSSYNMNWVRQAPGKGLEWIGYINKGGSAYYASWAKGRFTISRTSTTVDLKMTSPTTEDTATYFCVRSGGGGNLNLWGQGTLVTVSS
VL: AAVLTQTPSPVSAAVGGTVTISCQSSPNILGNYLSWFQQKPGQPPKLLIYYTSTLASGVPSRFKGSGSGTQFTLTISDVQCDDAATYYCLGVYRSDSDNVFGGGTEVVVK
notes: Rabbit IgG, kappa; also called antibody 763
Turning to B1, the EC50 in assay [1], in assay [2], in assay [3] and in assay [4] was less than 0.02 µg/mL throughout.

B2: BCC.763-4 (antibody, V domains shown)
VH: B1 VH with Y59D, S61N, T85P
VL: B1 VL
notes: recombinant rabbit IgG, kappa; Positions are Wolfguy indices; tie inferred; copies: 2 + 2
With B2, the half-maximal effective concentration (EC50) is less than 0.05 µg/mL in assay [1] and less than 0.02 µg/mL in assay [4].

B3: BCC.763-2 (antibody, V domains shown)
VH: B1 VH with E46A, R71K
VL: B1 VL
notes: recombinant rabbit IgG, kappa; Positions are Wolfguy indices; tie inferred; also called VH variant 2103:7194:16368 1:N:0:1
For B3, the concentration for a half-maximal effect (EC50) in assay [1] and in assay [4] was less than 0.02 µg/mL in each case.

B4: BCC.763-1 (antibody, V domains shown)
VH: B1 VH with T85P
VL: B1 VL
notes: recombinant rabbit IgG, kappa; Positions are Wolfguy indices, not positions on the entry; tie inferred
For the molecule B4, the half-maximal effective concentration (EC50) in assay [1] and in assay [4] was less than 0.02 µg/mL each time.

Broadly, the EC50 is the concentration that produces a half-maximal response. High values mean lower potency in that assay, low ones higher potency in that assay.

Source of the values: patent publication US20250263778A1 (Hoffmann-La Roche, published 2025).
